Results as given in the supplement of paper PMC10266784.

B1: library; numbered along this chain (parent)
chain: MAAAAAAAAEQQSSNGPVKKSMREKAVERRSVNKEHNSNFKAGYIPIDEDRLHKTGLRGRKGNLAICVIILLFILAVINLIITLVIWAVIRIGPNGCDSMEFHESGLLRFKQVSDMGVIHPLYKSTVGGRRNENLVITGNNQPIVFQQGTTKLSVENNKTSITSDIGMQFFDPRTQNILFSTDYETHEFHLPSGVKSLNVQKASTERITSNATSDLNIKVDGRAIVRGNEGVFIMGKTIEFHMGGNMELKAENSIILNGSVMVSTTRLPSSSSGDQLGSGDWVRYKLCMCADGTLFKVQVTSQNMGCQISDNPCGNTH

Variants of: B1
Experiment: SGCB cell-surface expression functional score (HA stain, bin4 vs bin1, normalised to synonymous) (log10 ratio); higher = more cell-surface SGCB (functional)
Method: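 Deep mutational scan of full-length human SGCB (YFP-SGCB-HA, NNN codon sublibraries A-F) delivered by lentivirus at low MOI into ADG-HEK293 cells stably expressing SGCA, SGCD and SGCG. YFP-positive cells were stained for surface HA on unpermeabilized cells and FACS-sorted into bins. The functional score is log10(frequency in high bin 4 / frequency in low bin 1), normalised per chunk so that synonymous variants have mean 0 and SD 0.5. Scores are the median over codons and over duplicate biological replicates; scores below -0.5 are called non-functional. Scale: negative means deleterious.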

Row | Variant | SGCB cell-surface expression functional score (log10)
1 | MAAAAAAAAEQQSSNGPVKKSMREKAVERRSVNKEHNSNFKAGYIPIDEDRLHKTGLRGRKGNLAICVIILLFTLAVINLIITLVIWAVIRIGPNGCDSMEFHESGLLRFKQVSDMGVIHPLYKSTVGGRRNENLVITGNNQPIVFQQGTTKLSVENNKTSITSDIGMQFFDPRTQNILFSTDYETHEFHLPSGVKSLNVQKASTERITSNATSDLNIKVDGRAIVRGNEGVFIMGKTIEFHMGGNMELKAENSIILNGSVMVSTTRLPSSSSGDQLGSGDWVRYKLCMCADGTLFKVQVTSQNMGCQISDNPCGNTH [I74T] | -0.02
2 | MAAAAAAAAEQQSSNGPVKKSMREKAVERRSVNKEHNSNFKAGYIPIDEDRLHKTGLRGRKGNLAICVIILLFWLAVINLIITLVIWAVIRIGPNGCDSMEFHESGLLRFKQVSDMGVIHPLYKSTVGGRRNENLVITGNNQPIVFQQGTTKLSVENNKTSITSDIGMQFFDPRTQNILFSTDYETHEFHLPSGVKSLNVQKASTERITSNATSDLNIKVDGRAIVRGNEGVFIMGKTIEFHMGGNMELKAENSIILNGSVMVSTTRLPSSSSGDQLGSGDWVRYKLCMCADGTLFKVQVTSQNMGCQISDNPCGNTH [I74W] | 0.64
3 | MAAAAAAAAEQQSSNGPVKKSMREKAVERRSVNKEHNSNFKAGYIPIDEDRLHKTGLRGRKGNLAICVIILLFCLAVINLIITLVIWAVIRIGPNGCDSMEFHESGLLRFKQVSDMGVIHPLYKSTVGGRRNENLVITGNNQPIVFQQGTTKLSVENNKTSITSDIGMQFFDPRTQNILFSTDYETHEFHLPSGVKSLNVQKASTERITSNATSDLNIKVDGRAIVRGNEGVFIMGKTIEFHMGGNMELKAENSIILNGSVMVSTTRLPSSSSGDQLGSGDWVRYKLCMCADGTLFKVQVTSQNMGCQISDNPCGNTH [I74C] | 0.07
4 | MAAAAAAAAEQQSSNGPVKKSMREKAVERRSVNKEHNSNFKAGYIPIDEDRLHKTGLRGRKGNLAICVIILLFRLAVINLIITLVIWAVIRIGPNGCDSMEFHESGLLRFKQVSDMGVIHPLYKSTVGGRRNENLVITGNNQPIVFQQGTTKLSVENNKTSITSDIGMQFFDPRTQNILFSTDYETHEFHLPSGVKSLNVQKASTERITSNATSDLNIKVDGRAIVRGNEGVFIMGKTIEFHMGGNMELKAENSIILNGSVMVSTTRLPSSSSGDQLGSGDWVRYKLCMCADGTLFKVQVTSQNMGCQISDNPCGNTH [I74R] | -1.42
5 | MAAAAAAAAEQQSSNGPVKKSMREKAVERRSVNKEHNSNFKAGYIPIDEDRLHKTGLRGRKGNLAICVIILLFVLAVINLIITLVIWAVIRIGPNGCDSMEFHESGLLRFKQVSDMGVIHPLYKSTVGGRRNENLVITGNNQPIVFQQGTTKLSVENNKTSITSDIGMQFFDPRTQNILFSTDYETHEFHLPSGVKSLNVQKASTERITSNATSDLNIKVDGRAIVRGNEGVFIMGKTIEFHMGGNMELKAENSIILNGSVMVSTTRLPSSSSGDQLGSGDWVRYKLCMCADGTLFKVQVTSQNMGCQISDNPCGNTH [I74V] | -0.01
6 | MAAAAAAAAEQQSSNGPVKKSMREKAVERRSVNKEHNSNFKAGYIPIDEDRLHKTGLRGRKGNLAICVIILLFNLAVINLIITLVIWAVIRIGPNGCDSMEFHESGLLRFKQVSDMGVIHPLYKSTVGGRRNENLVITGNNQPIVFQQGTTKLSVENNKTSITSDIGMQFFDPRTQNILFSTDYETHEFHLPSGVKSLNVQKASTERITSNATSDLNIKVDGRAIVRGNEGVFIMGKTIEFHMGGNMELKAENSIILNGSVMVSTTRLPSSSSGDQLGSGDWVRYKLCMCADGTLFKVQVTSQNMGCQISDNPCGNTH [I74N] | 0.04
7 | MAAAAAAAAEQQSSNGPVKKSMREKAVERRSVNKEHNSNFKAGYIPIDEDRLHKTGLRGRKGNLAICVIILLFFLAVINLIITLVIWAVIRIGPNGCDSMEFHESGLLRFKQVSDMGVIHPLYKSTVGGRRNENLVITGNNQPIVFQQGTTKLSVENNKTSITSDIGMQFFDPRTQNILFSTDYETHEFHLPSGVKSLNVQKASTERITSNATSDLNIKVDGRAIVRGNEGVFIMGKTIEFHMGGNMELKAENSIILNGSVMVSTTRLPSSSSGDQLGSGDWVRYKLCMCADGTLFKVQVTSQNMGCQISDNPCGNTH [I74F] | -0.25
8 | MAAAAAAAAEQQSSNGPVKKSMREKAVERRSVNKEHNSNFKAGYIPIDEDRLHKTGLRGRKGNLAICVIILLFLLAVINLIITLVIWAVIRIGPNGCDSMEFHESGLLRFKQVSDMGVIHPLYKSTVGGRRNENLVITGNNQPIVFQQGTTKLSVENNKTSITSDIGMQFFDPRTQNILFSTDYETHEFHLPSGVKSLNVQKASTERITSNATSDLNIKVDGRAIVRGNEGVFIMGKTIEFHMGGNMELKAENSIILNGSVMVSTTRLPSSSSGDQLGSGDWVRYKLCMCADGTLFKVQVTSQNMGCQISDNPCGNTH [I74L] | 0.44
9 | MAAAAAAAAEQQSSNGPVKKSMREKAVERRSVNKEHNSNFKAGYIPIDEDRLHKTGLRGRKGNLAICVIILLFYLAVINLIITLVIWAVIRIGPNGCDSMEFHESGLLRFKQVSDMGVIHPLYKSTVGGRRNENLVITGNNQPIVFQQGTTKLSVENNKTSITSDIGMQFFDPRTQNILFSTDYETHEFHLPSGVKSLNVQKASTERITSNATSDLNIKVDGRAIVRGNEGVFIMGKTIEFHMGGNMELKAENSIILNGSVMVSTTRLPSSSSGDQLGSGDWVRYKLCMCADGTLFKVQVTSQNMGCQISDNPCGNTH [I74Y] | -0.07
10 | MAAAAAAAAEQQSSNGPVKKSMREKAVERRSVNKEHNSNFKAGYIPIDEDRLHKTGLRGRKGNLAICVIILLFELAVINLIITLVIWAVIRIGPNGCDSMEFHESGLLRFKQVSDMGVIHPLYKSTVGGRRNENLVITGNNQPIVFQQGTTKLSVENNKTSITSDIGMQFFDPRTQNILFSTDYETHEFHLPSGVKSLNVQKASTERITSNATSDLNIKVDGRAIVRGNEGVFIMGKTIEFHMGGNMELKAENSIILNGSVMVSTTRLPSSSSGDQLGSGDWVRYKLCMCADGTLFKVQVTSQNMGCQISDNPCGNTH [I74E] | 0.75
11 | MAAAAAAAAEQQSSNGPVKKSMREKAVERRSVNKEHNSNFKAGYIPIDEDRLHKTGLRGRKGNLAICVIILLFDLAVINLIITLVIWAVIRIGPNGCDSMEFHESGLLRFKQVSDMGVIHPLYKSTVGGRRNENLVITGNNQPIVFQQGTTKLSVENNKTSITSDIGMQFFDPRTQNILFSTDYETHEFHLPSGVKSLNVQKASTERITSNATSDLNIKVDGRAIVRGNEGVFIMGKTIEFHMGGNMELKAENSIILNGSVMVSTTRLPSSSSGDQLGSGDWVRYKLCMCADGTLFKVQVTSQNMGCQISDNPCGNTH [I74D] | -0.26
12 | MAAAAAAAAEQQSSNGPVKKSMREKAVERRSVNKEHNSNFKAGYIPIDEDRLHKTGLRGRKGNLAICVIILLFKLAVINLIITLVIWAVIRIGPNGCDSMEFHESGLLRFKQVSDMGVIHPLYKSTVGGRRNENLVITGNNQPIVFQQGTTKLSVENNKTSITSDIGMQFFDPRTQNILFSTDYETHEFHLPSGVKSLNVQKASTERITSNATSDLNIKVDGRAIVRGNEGVFIMGKTIEFHMGGNMELKAENSIILNGSVMVSTTRLPSSSSGDQLGSGDWVRYKLCMCADGTLFKVQVTSQNMGCQISDNPCGNTH [I74K] | 0.07
13 | MAAAAAAAAEQQSSNGPVKKSMREKAVERRSVNKEHNSNFKAGYIPIDEDRLHKTGLRGRKGNLAICVIILLFPLAVINLIITLVIWAVIRIGPNGCDSMEFHESGLLRFKQVSDMGVIHPLYKSTVGGRRNENLVITGNNQPIVFQQGTTKLSVENNKTSITSDIGMQFFDPRTQNILFSTDYETHEFHLPSGVKSLNVQKASTERITSNATSDLNIKVDGRAIVRGNEGVFIMGKTIEFHMGGNMELKAENSIILNGSVMVSTTRLPSSSSGDQLGSGDWVRYKLCMCADGTLFKVQVTSQNMGCQISDNPCGNTH [I74P] | -0.18
14 | MAAAAAAAAEQQSSNGPVKKSMREKAVERRSVNKEHNSNFKAGYIPIDEDRLHKTGLRGRKGNLAICVIILLFQLAVINLIITLVIWAVIRIGPNGCDSMEFHESGLLRFKQVSDMGVIHPLYKSTVGGRRNENLVITGNNQPIVFQQGTTKLSVENNKTSITSDIGMQFFDPRTQNILFSTDYETHEFHLPSGVKSLNVQKASTERITSNATSDLNIKVDGRAIVRGNEGVFIMGKTIEFHMGGNMELKAENSIILNGSVMVSTTRLPSSSSGDQLGSGDWVRYKLCMCADGTLFKVQVTSQNMGCQISDNPCGNTH [I74Q] | 0
15 | MAAAAAAAAEQQSSNGPVKKSMREKAVERRSVNKEHNSNFKAGYIPIDEDRLHKTGLRGRKGNLAICVIILLFALAVINLIITLVIWAVIRIGPNGCDSMEFHESGLLRFKQVSDMGVIHPLYKSTVGGRRNENLVITGNNQPIVFQQGTTKLSVENNKTSITSDIGMQFFDPRTQNILFSTDYETHEFHLPSGVKSLNVQKASTERITSNATSDLNIKVDGRAIVRGNEGVFIMGKTIEFHMGGNMELKAENSIILNGSVMVSTTRLPSSSSGDQLGSGDWVRYKLCMCADGTLFKVQVTSQNMGCQISDNPCGNTH [I74A] | 0
16 | MAAAAAAAAEQQSSNGPVKKSMREKAVERRSVNKEHNSNFKAGYIPIDEDRLHKTGLRGRKGNLAICVIILLFHLAVINLIITLVIWAVIRIGPNGCDSMEFHESGLLRFKQVSDMGVIHPLYKSTVGGRRNENLVITGNNQPIVFQQGTTKLSVENNKTSITSDIGMQFFDPRTQNILFSTDYETHEFHLPSGVKSLNVQKASTERITSNATSDLNIKVDGRAIVRGNEGVFIMGKTIEFHMGGNMELKAENSIILNGSVMVSTTRLPSSSSGDQLGSGDWVRYKLCMCADGTLFKVQVTSQNMGCQISDNPCGNTH [I74H] | 0.05
17 | MAAAAAAAAEQQSSNGPVKKSMREKAVERRSVNKEHNSNFKAGYIPIDEDRLHKTGLRGRKGNLAICVIILLFSLAVINLIITLVIWAVIRIGPNGCDSMEFHESGLLRFKQVSDMGVIHPLYKSTVGGRRNENLVITGNNQPIVFQQGTTKLSVENNKTSITSDIGMQFFDPRTQNILFSTDYETHEFHLPSGVKSLNVQKASTERITSNATSDLNIKVDGRAIVRGNEGVFIMGKTIEFHMGGNMELKAENSIILNGSVMVSTTRLPSSSSGDQLGSGDWVRYKLCMCADGTLFKVQVTSQNMGCQISDNPCGNTH [I74S] | -0.05
18 | MAAAAAAAAEQQSSNGPVKKSMREKAVERRSVNKEHNSNFKAGYIPIDEDRLHKTGLRGRKGNLAICVIILLFMLAVINLIITLVIWAVIRIGPNGCDSMEFHESGLLRFKQVSDMGVIHPLYKSTVGGRRNENLVITGNNQPIVFQQGTTKLSVENNKTSITSDIGMQFFDPRTQNILFSTDYETHEFHLPSGVKSLNVQKASTERITSNATSDLNIKVDGRAIVRGNEGVFIMGKTIEFHMGGNMELKAENSIILNGSVMVSTTRLPSSSSGDQLGSGDWVRYKLCMCADGTLFKVQVTSQNMGCQISDNPCGNTH [I74M] | -0.6
19 | MAAAAAAAAEQQSSNGPVKKSMREKAVERRSVNKEHNSNFKAGYIPIDEDRLHKTGLRGRKGNLAICVIILLFGLAVINLIITLVIWAVIRIGPNGCDSMEFHESGLLRFKQVSDMGVIHPLYKSTVGGRRNENLVITGNNQPIVFQQGTTKLSVENNKTSITSDIGMQFFDPRTQNILFSTDYETHEFHLPSGVKSLNVQKASTERITSNATSDLNIKVDGRAIVRGNEGVFIMGKTIEFHMGGNMELKAENSIILNGSVMVSTTRLPSSSSGDQLGSGDWVRYKLCMCADGTLFKVQVTSQNMGCQISDNPCGNTH [I74G] | 0.2
